Experimental data reported in PMC4519192, “In vitro Selection and Interaction Studies of a DNA Aptamer Targeting Protein A”.

Tests used:
[1] = target: T1, Protein A, native (Sigma P3838) (Staphylococcus aureus, UniProt P38507 37-477); test: MST; 25 C, in solution; details: protein: native, label: 5'-fluorescein
[2] = target: T2, Protein A, recombinant (Sigma P7837) (UniProt P38507 37-327); test: MST; 25 C, in solution; details: protein: recombinant, label: 5'-fluorescein
[3] = target: T3, Protein A, native biotinylated (Sigma P2165) (Staphylococcus aureus, UniProt P38507 37-477); test: SPR; steady state; Protein A immobilized ~600 RU; details: tags: biotin, label: 5'-fluorescein
[4] = target: T2, Protein A, recombinant (Sigma P7837); test: SPR; steady state; aptamer immobilized 1030 RU; details: label: 3'-biotin, predicted stem-loop
[5] = target: T3, Protein A, native biotinylated (Sigma …); test: bead-based fluorescence binding; details: tags: biotin, label: 5'-fluorescein
[6] = target: T3, Protein A, native biotinylated (Sigma …); test: SPR; kinetic 1:1 fit; ka 1.23e3 M-1s-1, kd 1.66e-3 s-1; details: tags: biotin, label: 5'-fluorescein
[7] = target: T3, Protein A, native biotinylated (Sigma …); test: bead-based fluorescence binding; Protein A on streptavidin beads; details: tags: biotin, label: 5'-fluorescein
[8] = target: human thrombin (89223 Fluka) (human, UniProt P00734;P00734 328-363;364-622); test: SPR
[9] = target: Protein G, recombinant (Pierce 21193) (group G Streptococci, UniProt P06654 228-352); test: SPR; 1000 nM protein; details: label: 3'-biotin, predicted stem-loops, possible G4
Sequence of Protein G, recombinant (Pierce 21193) (P06654 228-352): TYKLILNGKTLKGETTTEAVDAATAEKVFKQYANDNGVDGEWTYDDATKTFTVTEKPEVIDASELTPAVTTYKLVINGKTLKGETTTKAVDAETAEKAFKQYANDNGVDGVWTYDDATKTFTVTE

[10] = target: T2, Protein A, recombinant (Sigma P7837); test: SPR; single-cycle mode; aptamer 516 RU; details: label: 3'-biotin
[11] = target: T2, Protein A, recombinant (Sigma P7837); test: SPR; steady state; aptamer immobilized 1086 RU; avidity; details: label: 3'-biotin
[12] = target: T1, Protein A, native (Sigma P3838); test: SPR; steady state; aptamer immobilized 1158 RU; avidity; details: label: 3'-biotin

B1: PA#2/8[S1-58] 5'-fluorescein (structured_DNA)
DNA: ATACCAGCTTATTCAATTAGCAACATGAGGGGGATAGAGGGGGTGGGTTCTCTCGGCT
Work on B1 yielded a Kd ([1]; predicted stem-loop) of 222 ± 60.5 nM, a Kd ([2]; predicted stem-loop) of 94.7 ± 64.6 nM and a Kd ([3]; predicted stem-loop) of 1920 ± 250 nM.

B2: PA#2/8[S1-58] 3'-biotin (structured_DNA)
DNA: ATACCAGCTTATTCAATTAGCAACATGAGGGGGATAGAGGGGGTGGGTTCTCTCGGCT
Binder B2 has a Kd [4] of 287 ± 16.2 nM.

B3: PA#2/8KR23 (structured_DNA)
DNA: GATAGAGGGGGTGGGTTCTCTCG
B3: no binding [5].

B4: PA#2/8[S19-76] (structured_DNA)
DNA: AGCAACATGAGGGGGATAGAGGGGGTGGGTTCTCTCGGCTACAATCGTAATCAGTTAG
B4: no binding [5].

B5: PA#2/8[S1-43] (structured_DNA)
DNA: ATACCAGCTTATTCAATTAGCAACATGAGGGGGATAGAGGGGG
Binder B5 has a Kd ([1]; predicted stem-loop) of 214 ± 46.1 nM and a Kd ([2]; predicted stem-loop) of 579 ± 123 nM.

B6: PA#2/8KR40 (structured_DNA)
DNA: AGCAACATGAGGGGGATAGAGGGGGTGGGTTCTCTCGGCT
B6: no binding [5].

B7: PA#2/8[S1-28] (structured_DNA)
DNA: ATACCAGCTTATTCAATTAGCAACATGA
B7: no binding [5].

B8: PA#2/8[S1-35] (structured_DNA)
DNA: ATACCAGCTTATTCAATTAGCAACATGAGGGGGAT
B8: no binding [5].

B9: PA#2/8 5'-fluorescein (structured_DNA)
DNA: ATACCAGCTTATTCAATTAGCAACATGAGGGGGATAGAGGGGGTGGGTTCTCTCGGCTACAATCGTAATCAGTTAG
For B9, the Kd [1] was 668 ± 224 nM, the Kd [2] was 927 ± 404 nM and the Kd [3] was 2220 ± 180 nM. For the same binder, the Kd [6] was 1350 nM and the Kd [7] was 1060 ± 200 nM.

B10: PA#2/8 3'-biotin (structured_DNA)
DNA: ATACCAGCTTATTCAATTAGCAACATGAGGGGGATAGAGGGGGTGGGTTCTCTCGGCTACAATCGTAATCAGTTAG
In the case of B10, the binding result [8] is reported as “no binding”, the binding result [9] is reported as “no binding” and the Kd [10] is reported as 148 ± 7.6 nM. The Kd [11] was 172 ± 14 nM and the Kd [12] was 84 ± 5 nM.
